From US20190119357A1, “MESSENGER RIBONUCLEIC ACIDS FOR THE PRODUCTION OF INTRACELLULAR BINDING POLYPEPTIDES AND METHODS OF USE THEREOF” (ModernaTX, Inc., priority 2015, published 2019)
Entries after “also recorded” stand apart in the source; their conditions may differ.

What was measured:
cells = assay: Half-life determination by bio-orthogonal non-canonical amino acid tagging (BONCAT); assay type: cell-based; settings: SQT protein scaffold in cells, post-transfection, one-phase decay fit
Protocol: The half-life of the SQT protein scaffold in cells was determined by Bio-orthogonal non-canonical amino acid tagging (BONCAT). […] AHA contains a reactive group (a terminal azide), which can be conjugated to a fluorophore via click chemistry. Newly synthesized proteins in the cells were separated by molecular weight (SDS-PAGE) at various time points post-transfection and visualized via in-gel fluorescence. The fluorescent signal was quantified using Li-cor's Image Studio (Version 3.1). One-phase decay nonlinear regression fit was by GraphPad Prism (Version 6).

[1] = Pharmacokinetics of intracellular expression of SQT scaffold polypeptide in mouse livers in vivo; design: species or system mice; settings: mouse liver
Protocol: Studies were performed to assess the pharmacokinetics of intracellular expression of the SQT scaffold polypeptide in mouse livers in vivo following multiple dosing. Mice were dosed on day 0 and on day 7 with an LNP carrying an mmRNA construct encoding the SQT scaffold polypeptide. The construct lacked any presenting polypeptides at any of the insertion sites (i.e., the construct was a “dummy” construct of only the scaffold), and was labeled with a FLAG epitope tag. Following dosing with the LNPs, liver protein was recovered and analyzed for expression of the SQT scaffold using the FLAG epitope tag for detection and quantification by quantitative Western blot analysis (LICOR/Western). Protein amounts were normalized to vinculin.

BCL-2 = molecular target: T1, BCL-2 (Homo sapiens, UniProt P10415); assay: Co-immunoprecipitation after mRNA transfection; assay type: binding; settings: within two hours after mRNA transfection
T1 construct: endogenous in cells; host or cells: cells transfected with SQT-BH3 mRNA (HeLa by context)

HeLa cells [2] = assay: Efficiency of cell killing at low mRNA dose; assay type: cell-based; settings: approximately 0.78 ng mRNA
Hep3B cells [3] = assay: Cell death by YOYO-3 with MC3-formulated LNPs; assay type: cell-based
Protocol: The efficacy of mRNAs encoding SQT-BH3 constructs in inducing cell death was tested both in hepatocellular carcinoma cell lines as well as in primary hepatocytes using lipid nanoparticle (LNP)-formulated constructs. Hep3B cells were treated with varying doses (0.78 ng to 50 ng) of MC3-formulated LNPs in the presence of YOYO-3 (Life Technologies), a DNA dye that is taken up preferentially by dead cells that is used to measure the extent of cell death. MC3 lipid nanoparticles included MC3 50%, DSPC 10%, Cholesterol 38.5%, PEG-DMG 1.5%, N:P ˜5.5.

HepG2 cells = assay: Cell death by YOYO3 with MC3 LNPs; assay type: cell-based
primary hepatocytes = assay: Apoptosis induction by MC3 LNP-formulated mRNAs in primary hepatocytes cultured in vitro; assay type: cell-based
HeLa cells [4] = assay: PARP-1 cleavage by SDS-PAGE and Western blotting after transfection of mRNAs encoding SQT-BH3 constructs; assay type: cell-based; settings: from anti-FLAG and anti-GFP Western blotting
Excerpt: The cleavage of PARP-1 was detected by the appearance of a faster-migrating band and concomitant loss of the full-length band by SDS-PAGE and Western blotting. Western blotting with anti-actin antibodies served as a loading control.

[5] = tested on: human melanoma cells (A375); assay: Cell death after mRNA transfection; assay type: cell-based
MCL-1 = molecular target: T2, MCL-1 (Homo sapiens, UniProt Q07820); assay: Co-immunoprecipitation in lysates of transfected HeLa cells; assay type: binding; settings: lysates of HeLa cells transfected with mRNAs
T2 construct: performed in lysates of HeLa cells transfected with mRNAs encoding SQT-BH3 constructs; endogenous in cells; host or cells: HeLa

[6] = tested on: human hepatocellular carcinoma (Hep G2) cells; assay: Cell death and morphology after mRNA transfection; assay type: cell-based
Excerpt: A representative graph of the apoptotic ability of the SQT-BH3 constructs is shown in FIG. 2, showing the cell killing capacity of the SQT-BH3 constructs in Hep G2 cells.

Hep3B cells [7] = assay: Efficiency of cell killing at low mRNA dose and dose-response; assay type: cell-based
BCL-XL = molecular target: T3, BCL-XL (Homo sapiens, UniProt Q07817); assay: Co-immunoprecipitation after mRNA transfection; assay type: binding; settings: within two hours after mRNA transfection
T3 construct: endogenous in cells; host or cells: cells transfected with SQT-BH3 mRNA (HeLa by context)

Hep3B cells [8] = assay: Co-transfection of SQT-Bim-BH3 in MC3 LNPs with Bcl-2-like trap mRNA constructs, YOYO-3; assay type: cell-based; settings: 272 picomolar SQT-Bim-BH3 in MC3 LNPs, increasing amounts of trap mRNA, 12 hour time point
Excerpt: YOYO-3 viability dye was used to assess apoptosis of cells.

Hep3B cells [9] = assay: Effect of insertion site position on apoptotic potency, YOYO3; assay type: cell-based; settings: Hep3B cells transfected with constructs
Protocol: BH3 domain was inserted into either the N-terminal insertion site, the loop 1 insertion site or the loop 2 insertion site of the SQT scaffold polypeptide. The mRNA sequences of these SQT-BID-BH3 constructs, with a FLAG epitope tag, are shown in SEQ ID NOs: 43-45, respectively. Corresponding mRNA sequences without the FLAG tag are shown in SEQ ID NOs: 46-48. Hep3B cells were transfected with the constructs and the apoptotic ability of the constructs was assessed using YOYO3 to determine cell death, as described above.

T1 sequence (P10415 whole entry): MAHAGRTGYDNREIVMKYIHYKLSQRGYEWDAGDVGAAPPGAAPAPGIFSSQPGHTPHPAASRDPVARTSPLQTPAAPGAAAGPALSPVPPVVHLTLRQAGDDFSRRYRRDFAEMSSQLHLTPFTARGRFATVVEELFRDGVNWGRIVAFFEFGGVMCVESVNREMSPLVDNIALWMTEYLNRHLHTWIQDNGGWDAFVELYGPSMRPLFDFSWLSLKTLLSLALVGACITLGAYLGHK
T2 sequence (Q07820 whole entry): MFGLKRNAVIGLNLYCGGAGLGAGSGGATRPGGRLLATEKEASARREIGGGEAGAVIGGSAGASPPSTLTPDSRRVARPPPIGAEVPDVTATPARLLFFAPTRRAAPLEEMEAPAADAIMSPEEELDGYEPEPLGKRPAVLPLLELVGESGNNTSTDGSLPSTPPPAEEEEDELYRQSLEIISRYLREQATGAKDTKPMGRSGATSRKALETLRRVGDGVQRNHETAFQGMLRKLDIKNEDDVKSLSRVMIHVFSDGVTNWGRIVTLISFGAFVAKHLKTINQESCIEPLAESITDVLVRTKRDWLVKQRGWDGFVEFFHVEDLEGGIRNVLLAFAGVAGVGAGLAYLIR
T3 sequence (Q07817 whole entry): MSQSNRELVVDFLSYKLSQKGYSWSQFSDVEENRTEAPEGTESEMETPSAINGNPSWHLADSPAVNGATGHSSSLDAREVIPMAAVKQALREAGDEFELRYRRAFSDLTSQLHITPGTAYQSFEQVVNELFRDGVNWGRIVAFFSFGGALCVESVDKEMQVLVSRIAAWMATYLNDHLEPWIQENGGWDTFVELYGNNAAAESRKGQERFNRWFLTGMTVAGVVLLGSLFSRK

B1: SQT scaffold: Stefin A Quadruple Mutant-Tracy scaffold polypeptide (SEQ ID NO: 70) expressed from a dummy mmRNA construct (protein)
chain: MIPRGLSEAKPATPEIQEIVDKVKPQLEEKTNETYGKLEAVQYKTQVLASTNYYIKVRAGDNKYMHLKVFNGPPGQNADRVLTGYQVDKNKDDELTGF
modifications: Synthetic SteA SQT scaffold amino acid sequence
With B1 the half-life (cells) was 33.31 h, the “time to peak protein levels” value ([1]; first dose (day 0) of LNP) was “approximately 20 hours” and the “time at which protein levels were essentially finished” value ([1]; post-injection of first dose) was “approximately 160 hours”. For the same molecule, the “time to peak protein levels” value ([1]; second dose (day 7), post-injection) was “approximately 20 hours”.

B2: SQT-Bim-BH3: mRNA (SEQ ID NO: 50, FLAG) encoding SQT scaffold with Bim BH3 domain in N-terminus (nucleic acid)
chain: ATGATCCCAAGAGACATGCGCCCCGAAATTTGGATCGCCCAGGAGCTCAGACGCATCGGAGATGAATTCAACGCATACTACGCTCGGCGGGGACTCTCAGAAGCGAAGCCTGCCACCCCCGAAATCCAGGAAATCGTCGACAAGGTCAAGCCGCAGCTTGAGGAAAAGACCAACGAGACTTACGGAAAACTGGAGGCCGTGCAGTATAAGACCCAAGTGTTGGCCTCCACCAACTACTACATTAAGGTCCGCGCCGGCGATAACAAGTACATGCACCTGAAGGTGTTCAATGGTCCTCCGGGACAGAACGCGGACAGGGTGCTGACTGGCTACCAAGTGGACAAGAACAAGGACGACGAGCTGACGGGCTTCGACTACAAGGATGATGATGACAAA
modifications: FLAG tag; Synthetic SQT-BIM-BH3 mRNA sequence with FLAG epitope tag
For B2, the “interaction with BCL-2 by co-immunoprecipitation” value (BCL-2) was “to a lesser extent”, the “efficiency of cell killing” value (HeLa cells [2]) was “killed both HeLa cells and Hep3B cells with greater efficiency than SQT-PUMA-BH3” and the “cell killing (YOYO-3)” value (Hep3B cells [3]; four-fold lower concentration) was “induced cell killing in Hep3B cells more efficiently than SQT-PUMA-BH3”. The “apoptosis and cell death (YOYO-3)” value (Hep3B cells [3]; relatively high concentration) was “both induced apoptosis and cell death; also recorded: kills Hep3B cells at higher concentrations”, the “cell death (YOYO3 staining)” value (HepG2 cells) was “lead to cell death; also recorded: kills HepG2 cells” and the “efficacy and timing of cell death, comparison” value (HepG2 cells) was “induced cell death with an increase in both efficacy and timing compared to SQT-PUMA-BH3”. The PARP-1 cleavage (primary hepatocytes; LNPs) was “also induced PARP-1 cleavage in primary hepatocytes”, the “apoptosis (YOYO-3 dye uptake and fluorescence) as a function of time” value (primary hepatocytes; MC3-LNP-formulated) was “induce apoptosis” and the “cell death of transfected cells” value (HeLa cells [4]) was “underwent cell death”. For the same molecule, the cell death [5] was “caused rapid cell death almost immediately following transfection”, the “co-immunoprecipitation of MCL-1” value (MCL-1) was “able to co-immunoprecipitate” and the cell death [6] was “caused rapid cell death almost immediately following transfection; also recorded: underwent cell death almost immediately following transfection”. The cell morphology [6] was “rounded-up cell morphology that is characteristic of apoptotic cells”, the “efficiency of cell killing” value (Hep3B cells [7]; Hep3B cells, approximately 0.78 ng mRNA) was “killed both HeLa cells and Hep3B cells with greater efficiency than SQT-PUMA-BH3” and the “cell killing, dose-response curve” value (Hep3B cells [7]; Hep3B, 12 hours after transfection, L2K lipid nanoparticles) was “more efficient cell killing by SQT-Bim-BH3 at low doses”. The “interaction with BCL-XL by co-immunoprecipitation” value (BCL-XL) was “able interact”.

B3: Bcl-2 (D34A) del.C32: Bcl-2-like trap mRNA, SEQ ID NO: 82, FLAG tag (nucleic acid)
chain: ATGGCACACGCTGGTAGGACAGGCTACGACAACCGTGAGATTGTGATGAAGTATATTCACTATAAGCTGTCTCAAAGAGGCTACGAATGGGATGCGGGGGCCGTCGGGGCTGCCCCACCTGGTGCCGCCCCGGCTCCTGGGATTTTCTCTTCCCAGCCGGGACATACCCCTCATCCTGCCGCTTCTAGGGACCCTGTGGCAAGAACATCCCCTCTACAGACCCCTGCCGCCCCAGGTGCGGCTGCTGGCCCAGCGTTAAGTCCCGTTCCACCAGTCGTGCACCTTACCCTTAGGCAAGCGGGCGACGATTTCTCTAGGCGATACCGGAGGGACTTTGCCGAAATGTCATCACAGCTCCATCTTACTCCATTTACTGCCCGTGGCAGATTCGCCACCGTAGTGGAAGAACTCTTTCGAGACGGCGTAAATTGGGGGAGGATCGTGGCATTTTTCGAATTTGGAGGGGTTATGTGTGTGGAGAGCGTGAATCGGGAAATGTCTCCTCTGGTTGACAATATTGCCTTGTGGATGACCGAATATCTTAACAGGCACCTCCACACCTGGATTCAAGATAATGGTGGATGGGATGCGTTTGTGGAACTTTATGGGCCTTCAATGCGTGACTATAAGGACGACGACGACAAA
modifications: FLAG tag; Synthetic Bcl-2(D34A)del.C32 BH3 mRNA sequence with FLAG epitope tag
For B3, the “protection from apoptosis by SQT-Bim-BH3 (YOYO-3)” value (Hep3B cells [8]) was “all of the tested trap constructs except Bcl-2 (D34A) del.C32 were able to protect”.

B4: SQT(nt)BID-BH3: mRNA (SEQ ID NO: 43) encoding SQT with a single BID BH3 domain in the N-terminal insertion site (nucleic acid, listed as Homo sapiens)
chain: ATGATACCCAGACAAGAGGACATCATTCGTAACATCGCGCGACACCTGGCCCAGGTGGGGGACTCCATGGATCGATCAATCCCCCCTGGCTTATCCGAAGCTAAGCCAGCCACCCCTGAGATCCAAGAAATCGTCGACAAGGTCAAGCCCCAACTTGAAGAGAAAACTAATGAAACTTATGGTAAGCTCGAAGCCGTGCAATACAAGACTCAGGTCCTGGCGTCTACAAATTATTACATCAAGGTGAGGGCCGGGGACAATAAGTATATGCATCTGAAAGTCTTCAATGGCCCCCCTGGACAAAACGCAGATCGGGTGCTCACAGGATACCAGGTCGATAAAAATAAAGATGACGAACTTACTGGGTTTGATTATAAAGATGATGATGACAAG
modifications: (1)..(393) SQT(nt)BID-BH3 mRNA sequence with FLAG epitope tag
For B4, the “apoptotic potency (YOYO3 cell death)” value (Hep3B cells [9]) was “more potent than the SQT-BID-BH3 constructs with the BH3 domain inserted at either the loop 1 insertion site or the loop 2 insertion site”.
